Test results published in article PMC4655355, “Structural insights into YfiR sequestering by YfiB in Pseudomonas aeruginosa PAO1” (Scientific Reports, 2015).
Changes are numbered by the printed parent chain. In names and notes the source's numbering stands.

B1: YfiB(27–168) (domain or fragment)
chain: QTKPPQTGLSAEQIAVLQEQGFELRDEGWEFGMSSKVLFGNNLDRLNPDSRNTLTKIARALLAVDIDKVRLEGHTDNYGDEGYNQKLSERRAESVAAVFREAGMPAANIEVRGLGMSKPVADNKTRAGRSENRRVAIIVPAE
notes: signal peptide 1-25 and lipid acceptor Cys26 left out; cloned in pGEX-6p-1; GST removed with PPase on the resin; also called PA1119; longer YfiB construct; source: E. coli, purified (GST column, Hitrap Q, Superdex75)
B2: YfiB(59–168) (domain or fragment)
chain: MSSKVLFGNNLDRLNPDSRNTLTKIARALLAVDIDKVRLEGHTDNYGDEGYNQKLSERRAESVAAVFREAGMPAANIEVRGLGMSKPVADNKTRAGRSENRRVAIIVPAE
notes: cloned in pET-32a; tag removed with PPase on the resin; also called shorter YfiB construct; source: E. coli, purified (Ni-NTA, Hitrap S, Superdex75)
B3: YfiR(C71S) (domain or fragment)
chain: DDARTSIEQRSNAVSQVLLGIFSYVRWPKEPAVLQLSVVGPTEYADGLLRGMVQANGRRVHAERRAVDNPDLGTLCNVIYLGVVDERERQQVFRSLAGHPVLSISERGTECSVGSMFCLNVGGPRITFEANLDSIARSGVRVHPSVLKLARRQATP
notes: YfiR (PA1121) of Pseudomonas aeruginosa PAO1, residues 35-190, with C71S; the methods describe only the wild-type construct; also called C71S mutant of YfiR; not shown: Trx, N-terminal, cleaved
B4: YfiR (residues 35–190) (domain or fragment)
chain: B3 chain with S37C
notes: YfiR (PA1121) of Pseudomonas aeruginosa PAO1, residues 35-190; the N-terminal 34 residues (signal peptide) left out; cloned in pET-32a; purified on Ni-NTA, tag removed with PPase; also called PA1121; wild-type YfiR; source: E. coli, purified (Ni-NTA, ResourceS, Superdex75); not shown: Trx, N-terminal, cleaved

Legend:
[1] = target: YfiB W55L (Pseudomonas aeruginosa PAO1) (UniProt Q9I4L6); assay: AUC; single purified proteins, 400 μL at 3 mg ml^-1 in 20 mM Tris-HCl, 200 mM NaCl; 42,000 rpm, 277 K, interference detection; SEDFIT
[2] = target: the molecule itself; assay: as above
[3] = target: B4; assay: AUC; YfiB-YfiR complex at 10 mg ml^-1 in 20 mM Tris-HCl, 200 mM NaCl; 42,000 rpm, 277 K, interference detection; SEDFIT; conditions: both partners purified
[4] = target: B3; assay: crystal structure; YfiR(C71S)-YfiB(59–168) complex, 1.97 Å; proteins mixed 1:1; 0.1 M HEPES pH 7.5, 1.8 M ammonium sulfate, 293 K; conditions: both partners purified
[5] = target: the molecule itself; assay: as above
[6] = target: the molecule itself; assay: AUC; YfiB-YfiR complex at 10 mg ml^-1 in 20 mM Tris-HCl, 200 mM NaCl; 42,000 rpm, 277 K, interference detection; SEDFIT

YfiB W55L (from UniProt Q9I4L6 27-168) (domain or fragment)
stoichiometry N [1]: 2

B1
stoichiometry N [2]: 2

B2
stoichiometry N [3]: 1 YfiB per YfiR (2:2) | binding result [4]: binds

B3
binding result [5]: binds

B4
stoichiometry N [6]: 2
